Some results are limits rather than exact numbers.

The results in this text go back to patent publication US20120251557A1 (VERENIGING VOOR CHRISTELIJK HOGER ONDERWIJS …, published 2012).

Assay [1] addresses CD45 on human peripheral blood lymphocytes (PBL) (human) (UniProt P08575). As to the kind of experiment: cell-based or functional assay.
For assay [2], the target named is human CD45BC isoform in transfected murine 300-19 cells (human) (UniProt P08575). The assay is described as follows: ELISA: isoform pulled down from transfectant lysate with panCD45 antibody, probed with MGL-Fc; ++ = high binding (OD 450 nm >0.25).
In assay [3] the target is human CD45ABC isoform in transfected murine 300-19 cells (human) (UniProt P08575). The assay is described as above.
Chain of human CD45ABC isoform in transfected murine 300-19 cells (human) (P08575 26-1306): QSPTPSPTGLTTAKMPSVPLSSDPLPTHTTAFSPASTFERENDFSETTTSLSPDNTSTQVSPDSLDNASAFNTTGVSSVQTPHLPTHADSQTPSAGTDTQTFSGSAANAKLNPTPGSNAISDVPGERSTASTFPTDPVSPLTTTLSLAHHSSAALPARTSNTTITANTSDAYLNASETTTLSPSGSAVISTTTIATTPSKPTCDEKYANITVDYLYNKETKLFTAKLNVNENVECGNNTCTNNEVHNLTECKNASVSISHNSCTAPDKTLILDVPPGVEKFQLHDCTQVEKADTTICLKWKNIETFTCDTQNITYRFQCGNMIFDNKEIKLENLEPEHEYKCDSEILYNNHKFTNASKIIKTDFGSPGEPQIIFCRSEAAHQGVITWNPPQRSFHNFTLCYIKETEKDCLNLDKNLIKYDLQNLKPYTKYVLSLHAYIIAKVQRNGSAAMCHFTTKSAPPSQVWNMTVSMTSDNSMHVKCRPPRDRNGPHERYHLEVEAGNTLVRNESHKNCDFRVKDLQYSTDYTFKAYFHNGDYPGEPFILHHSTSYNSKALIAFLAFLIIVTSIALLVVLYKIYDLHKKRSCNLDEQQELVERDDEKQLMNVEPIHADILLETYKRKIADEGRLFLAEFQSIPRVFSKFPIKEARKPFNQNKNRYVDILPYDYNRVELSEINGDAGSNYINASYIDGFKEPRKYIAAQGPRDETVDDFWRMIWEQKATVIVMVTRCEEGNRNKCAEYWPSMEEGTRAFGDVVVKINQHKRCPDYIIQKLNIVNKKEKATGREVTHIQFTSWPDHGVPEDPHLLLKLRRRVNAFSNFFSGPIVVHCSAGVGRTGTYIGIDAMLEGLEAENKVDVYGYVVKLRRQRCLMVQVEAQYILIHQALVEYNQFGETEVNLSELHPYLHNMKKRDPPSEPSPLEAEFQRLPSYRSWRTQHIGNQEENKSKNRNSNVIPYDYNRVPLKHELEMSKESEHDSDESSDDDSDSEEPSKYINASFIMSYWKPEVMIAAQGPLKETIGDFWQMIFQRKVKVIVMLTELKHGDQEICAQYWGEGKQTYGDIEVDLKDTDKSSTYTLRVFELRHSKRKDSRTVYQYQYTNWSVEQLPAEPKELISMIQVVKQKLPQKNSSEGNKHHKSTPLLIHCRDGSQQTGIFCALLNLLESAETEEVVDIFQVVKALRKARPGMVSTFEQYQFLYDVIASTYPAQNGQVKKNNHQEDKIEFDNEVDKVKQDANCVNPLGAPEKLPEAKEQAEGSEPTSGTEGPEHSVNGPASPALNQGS
Assay [4] concerns the target human CD45AB isoform in transfected murine 300-19 cells (human) (UniProt P08575). Described as above.
Assay [5] has as its target human CD45B isoform in transfected murine 300-19 cells (human) (UniProt P08575). The description is as above.
The target of assay [6] is CD45 on human peripheral blood lymphocytes (PBL) (human) (UniProt P08575). The assay is described as follows: ELISA: MGL-Fc-coated plate captures ligands from PBL lysate, detection with panCD45 antibody; ++ = high binding (OD 450 nm >0.25).
Chain of CD45 on human peripheral blood lymphocytes (PBL) (human) (P08575 26-1306): as above
Assay [7] concerns the target A-containing CD45 isoforms from PBL (detected with anti-CD45RA). As to the kind of experiment: ELISA: MGL-Fc-coated plate captures ligands from PBL lysate, detection with anti-CD45RA; + = low binding (OD 450 nm <0.25).
In assay [8] the target is B-containing CD45 isoforms from PBL (detected with anti-CD45RB). As to the kind of experiment: ELISA: MGL-Fc-coated plate captures ligands from PBL lysate, detection with anti-CD45RB; ++ = high binding (OD 450 nm >0.25).
The target in assay [9] is C-containing CD45 isoforms from PBL (detected with anti-CD45RC). As to the kind of experiment: ELISA: MGL-Fc-coated plate captures ligands from PBL lysate, detection with anti-CD45RC; ++ = high binding (OD 450 nm >0.25).
In assay [10] the target is T1, secreted tumor-associated MUC1 from the supernatant of ZR75 tumor cells (UniProt P15941 24-1097, limits assumed).
T1 construct: Coated on ELISA plates, or loaded on beads through MUC1 antibodies; also called secreted MUC1 from tumor cell line ZR75
T1 sequence (P15941 24-1097 limits assumed): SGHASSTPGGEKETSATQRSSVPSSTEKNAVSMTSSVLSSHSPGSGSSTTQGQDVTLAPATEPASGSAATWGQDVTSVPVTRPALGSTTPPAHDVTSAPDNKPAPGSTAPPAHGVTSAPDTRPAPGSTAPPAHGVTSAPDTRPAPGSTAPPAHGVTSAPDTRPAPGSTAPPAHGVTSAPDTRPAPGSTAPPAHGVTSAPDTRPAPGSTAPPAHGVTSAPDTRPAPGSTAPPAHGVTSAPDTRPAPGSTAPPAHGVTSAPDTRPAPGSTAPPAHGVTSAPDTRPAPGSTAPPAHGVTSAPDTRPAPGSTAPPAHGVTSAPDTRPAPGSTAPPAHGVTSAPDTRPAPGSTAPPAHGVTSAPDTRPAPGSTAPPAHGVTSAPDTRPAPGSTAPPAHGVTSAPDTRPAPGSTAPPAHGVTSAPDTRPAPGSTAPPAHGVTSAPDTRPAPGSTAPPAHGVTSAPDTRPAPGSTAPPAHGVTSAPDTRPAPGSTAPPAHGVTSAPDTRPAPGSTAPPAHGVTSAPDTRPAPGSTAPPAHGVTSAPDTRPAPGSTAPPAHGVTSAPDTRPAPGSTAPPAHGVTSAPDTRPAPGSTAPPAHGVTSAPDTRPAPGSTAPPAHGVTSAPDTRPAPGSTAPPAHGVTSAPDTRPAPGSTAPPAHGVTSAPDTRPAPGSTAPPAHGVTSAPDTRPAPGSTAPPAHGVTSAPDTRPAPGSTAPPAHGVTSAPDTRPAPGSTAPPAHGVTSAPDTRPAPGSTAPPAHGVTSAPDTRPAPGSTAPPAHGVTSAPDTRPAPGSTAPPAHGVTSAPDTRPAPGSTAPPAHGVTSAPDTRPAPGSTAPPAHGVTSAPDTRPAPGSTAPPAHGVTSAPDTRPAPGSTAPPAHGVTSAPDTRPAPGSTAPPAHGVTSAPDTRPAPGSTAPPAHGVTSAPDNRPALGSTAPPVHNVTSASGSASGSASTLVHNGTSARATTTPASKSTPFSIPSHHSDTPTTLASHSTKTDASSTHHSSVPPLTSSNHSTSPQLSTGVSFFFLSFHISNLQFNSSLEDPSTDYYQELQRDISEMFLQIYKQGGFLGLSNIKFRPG
The assay is described as follows: ELISA on coated MUC1 from ZR75 supernatant. From the text:
Example 2, FIG. 8. MGL-Fc detects secreted MUC1 from tumor cell line ZR75. FIG. 8A, MUC1 was harvested out of the supernatant of cultured ZR75 tumor cells and coated on ELISA plates. Both MGLFc and DC-SIGNFc were used to look for carbohydrate-binding epitopes expressed on tumor-associated MUC1. […] Furthermore, EGTA, which inhibits lectin binding to carbohydrates, illustrates that the recognition of MGL to MUC1 is carbohydrate mediated. FIG. 8B, in a second experiment, the tumor-associated MUC1 were coated on fluorescent beads coupled with MUC1 antibodies. Fluorescent MUC1-coupled beads were added to MGL-expressing CHO cells and untransfected CHO cells.
This experiment is depicted in FIG. 8 of Example 2. In FIG. 8A, MUC1 was harvested out of the supernatant of cultured ZR75 tumor cells and coated on ELISA plates. Both MGLFc and DC-SIGNFc were used to look for carbohydrate-binding epitopes expressed on tumor-associated MUC1. […] Furthermore, EGTA, which inhibits lectin binding to carbohydrates, illustrates that the recognition of MGL to MUC1 is mediated by the expression of carbohydrates.

For the molecule “Macrophage galactose-type lectin (MGL) on cells (CHO-MGL transfectants, monocyte-derived dendritic cells, dexamethasone-treated APC) (from UniProt Q8IUN9 1-316) (receptor)”, the proliferation of allogeneic CD4+ T cells ([methyl-3H]thymidine) in co-culture with dexamethasone-treated APC, with or without blocking anti-MGL antibodies in assay [1] came to 3 fold.

“MGL-Fc (extracellular part of human MGL, amino acids 61-289, fused at the C-terminus to human IgG1-Fc) (from UniProt Q8IUN9 61-289; P01857 99-330) (Fc fusion)”: the OD 450 nm in assay [2] was greater than 0.25 od; in assay [3], greater than 0.25 od; in assay [4], greater than 0.25 od; in assay [5] it was greater than 0.25 od; in [6], greater than 0.25 od; in [7], less than 0.25 od. In addition, the OD 450 nm in assay [8] and in assay [9] was greater than 0.25 od throughout.

B1: DC-SIGN-Fc (Fc fusion, UniProt Q9NNX6 64-404, looked up)
chain: PSSISQEQSRQDAIYQNLTQLKAAVGELSEKSKLQEIYQELTQLKAAVGELPEKSKLQEIYQELTRLKAAVGELPEKSKLQEIYQELTWLKAAVGELPEKSKMQEIYQELTRLKAAVGELPEKSKQQEIYQELTRLKAAVGELPEKSKQQEIYQELTRLKAAVGELPEKSKQQEIYQELTQLKAAVERLCHPCPWEWTFFQGNCYFMSNSQRNWHDSITACKEVGAQLVVIKSAEEQNFLQLQSSRSNRFTWMGLSDLNQEGTWQWVDGSPLLPSFKQYWNRGEPNNVGEEDCAEFSGNGWNDDKCNLAKFWICKKSAASCSRDEEQFLSPAPATPNPPPA
notes: not shown: Fc part not described
Take B1: in assay [10], the binding result is “no binding”.
